Assay results published in publication PMC5880795, “Cloning and expression of a novel α-1,3-arabinofuranosidase from Penicillium oxalicum sp. 68” (AMB Express, 2018).

Test system: T1, O=[N+]([O-])c1ccc(O[C@@H]2O[C@@H](CO)[C@H](O)[C@H]2O)cc1
T1 construct: signal peptide (predicted residues 1-30) removed; pPIC9K SnaBI/EcoRI, secreted from Pichia pastoris GS115; no tag mentioned
Assay: purified protein
Type: biochemical, Penicillium oxalicum
Conditions: 20 mM Na-acetate pH 4.5, 37 °C (standard assay; kinetic conditions not restated)

PoAbf62A (Penicillium oxalicum 114-2), sequence (chain, as listed by the source): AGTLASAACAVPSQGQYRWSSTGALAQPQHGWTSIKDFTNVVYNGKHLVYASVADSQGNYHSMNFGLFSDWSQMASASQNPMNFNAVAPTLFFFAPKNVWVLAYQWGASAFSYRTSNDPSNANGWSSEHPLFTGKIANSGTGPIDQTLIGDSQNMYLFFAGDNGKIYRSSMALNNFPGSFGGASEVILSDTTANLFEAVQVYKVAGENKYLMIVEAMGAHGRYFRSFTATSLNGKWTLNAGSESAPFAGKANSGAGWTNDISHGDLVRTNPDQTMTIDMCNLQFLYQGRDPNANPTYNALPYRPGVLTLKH

PoAbf62A (Penicillium oxalicum 114-2)
Km: 1360 ± 120 µM
kcat: 0.27 ± 0.01 s⁻¹
